Measured values: patent publication US20140120095A1 (Boehringer Ingelheim, published 2014)

Assays:
[1] = target: T1, recombinant human DLL4 (C-terminally His-tagged extracellular domain, R&D Systems) (human, UniProt Q9NR61 25-522, biotinylated in the competition ELISA); experiment: SPR (Biacore), recombinant human DLL4
T1 construct: also called rhDLL4; hDLL4
Protocol: Kinetic analysis to determine the affinity of the DII4-VHH interaction is performed by Surface Plasmon Resonance (SPR) on a Biacore T100 instrument. […] Purified VHHs or Fab fragment are injected for 2 minutes at different concentrations (between 10 and 300 nM) and allowed to dissociate for 20 min at a flow rate of 45 μl/min. Between sample injections, the surfaces are regenerated with 10 mM glycine pH1.5 and 100 mM HCl. HBS-N (Hepes buffer pH7.4) is used as running buffer. If possible, data are evaluated by fitting a 1:1 interaction model (Langmuir binding) onto the binding curves. The affinity constant KD is calculated from resulting association and dissociation rate constants (kₐ) and […].

[2] = target: T2, human DLL4 expressed on cells (CHO-hDLL4; HEK293-hDLL4) (human, UniProt Q9NR61 27-685); experiment: competition FMAT, labelled hNotch1-Fc on CHO-hDLL4 cells
T2 construct: full length human DLL4 overexpressed on CHO cells (FMAT, FACS) or HEK293 cells (reporter assay)

[3] = target: T2, human DLL4 expressed on cells …; experiment: cell-based or functional assay
[4] = target: T1, recombinant human DLL4 (C-terminally …); experiment: competition ELISA, biotinylated hDLL4 to coated hNotch1-Fc
[5] = target: T1, recombinant human DLL4 (C-terminally …); experiment: competition ELISA hDLL4/hNotch1-Fc; summary table
recombinant human DLL4 = target: T3, recombinant human DLL4 (human, UniProt Q9NR61 25-522); experiment: Biacore off-rate, periplasmic extract
T3 construct: also called rhDLL4; hDLL4

[6] = target: T4, mouse DLL4 overexpressed on cells (mouse, UniProt Q9JI71 27-686); experiment: FMAT, labelled hNotch1-Fc on CHO-mDLL4, periplasmic extract
T4 construct: whole, on cells; also called CHO-mDLL4; CHO-mDII4
T4 sequence (Q9JI71 27-686): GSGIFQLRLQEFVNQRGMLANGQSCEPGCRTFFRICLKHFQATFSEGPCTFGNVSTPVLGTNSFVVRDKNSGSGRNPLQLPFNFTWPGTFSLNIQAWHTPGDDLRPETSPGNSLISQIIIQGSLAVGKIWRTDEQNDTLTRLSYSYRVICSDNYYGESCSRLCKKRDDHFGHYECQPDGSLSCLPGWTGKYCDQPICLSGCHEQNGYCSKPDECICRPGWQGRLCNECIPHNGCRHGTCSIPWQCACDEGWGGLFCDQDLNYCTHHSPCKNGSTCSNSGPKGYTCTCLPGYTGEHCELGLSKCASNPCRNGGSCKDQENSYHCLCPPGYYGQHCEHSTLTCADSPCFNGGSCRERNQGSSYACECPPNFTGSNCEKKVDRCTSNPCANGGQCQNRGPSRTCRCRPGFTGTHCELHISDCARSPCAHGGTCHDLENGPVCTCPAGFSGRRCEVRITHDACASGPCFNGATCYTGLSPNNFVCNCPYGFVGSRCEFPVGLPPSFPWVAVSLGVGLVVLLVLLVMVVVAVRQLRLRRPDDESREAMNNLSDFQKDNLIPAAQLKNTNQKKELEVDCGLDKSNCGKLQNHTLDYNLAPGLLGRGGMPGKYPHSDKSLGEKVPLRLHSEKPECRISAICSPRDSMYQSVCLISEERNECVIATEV
Text: (§1) All calculations are based on the FL1_total signal which comprises the average of the fluorescence per well times the number of counts per well.

[7] = target: T5, human DLL4 overexpressed on cells (human, UniProt Q9NR61 27-685); experiment: FMAT, labelled hNotch1-Fc on CHO-hDLL4, periplasmic extract
T5 construct: full length human DLL4 on CHO or HEK293 cells; also called CHO-hDLL4; CHO-hDII4
Text: as §1

B1: DLLBII019 (VHH, not shown: small tags and cut ends)
VHH: EVQLVESGGGLVQPGGSLRLSCAASGFTFGSYDMSWVRRSPGKGPEWVSSINSGGGSTYYADYVKGRFTISRDNAKNTLYLQMNSLRPEDTAVYYCAADRYIWARQGEYWGAYEYDYWGQGTLVTVSS
B1 was tested, and the Kd [1] was 1.3 nM, the koff [1] was 0.00074 s⁻¹ and the kon [1] was 570000 M⁻¹ s⁻¹. For the same binder, the IC50 [2] was 3 nM.

B2: DLLBII020 (VHH, not shown: small tags and cut ends)
VHH: EVQLVESGGGLVQPGGSLRLSCAASGFTFGSYDMSWVRQSPGKGPEWVSSINSGGGSTYYADYVKGRFTISRDNAKNTLYLQMNSLRPEDTAVYYCAADRYIWARQGEYWGAYEYDYWGQGTLVTVSS
B2 showed a Kd [1] of 27 nM, a koff [1] of 0.0093 s⁻¹ and a kon [1] of 340000 M⁻¹ s⁻¹. The IC50 [2] was 44.6 nM.

B3: DLLBII021 (VHH, not shown: small tags and cut ends)
VHH: EVQLVESGGGLVQPGGSLRLSCAASGFTFGSYDMSWVRRAPGKGPEWVSSINSGGGSTYYADYVKGRFTISRDNAKNTLYLQMNSLRPEDTAVYYCAADRYIWARQGEYWGAYEYDYWGQGTLVTVSS
Work on B3 yielded a Kd [1] of 1 nM, a koff [1] of 0.00057 s⁻¹ and a kon [1] of 560000 M⁻¹ s⁻¹. The IC50 [2] was 2.1 nM.

B4: DLLBII022 (VHH, not shown: small tags and cut ends)
VHH: EVQLVESGGGLVQPGGSLRLSCAASGFTFGSYDMSWVRQAPGKGPEWVSSINSGGGSTYYADYVKGRFTISRDNAKNTLYLQMNSLRPEDTAVYYCAADRYIWARQGEYWGAYEYDYWGQGTLVTVSS
With B4 the Kd [1] was 46 nM, the koff [1] was 0.022 s⁻¹ and the kon [1] was 470000 M⁻¹ s⁻¹. The IC50 [2] was 95.4 nM.

B5: DLLBII134D10 (VHH, not shown: small tags and cut ends)
VHH: EVQLVESGGGLVQPGGSLRLSCAASGFTIGSYDMSWVRRSPGKGPEWVSSINSGGGSTYYTDYVKGRFTISRDNAKNTLYLQMNSLKPEDTAVYYCAADRYIWARQGEYWGAYAYDYWGQGTQVTVSS
With B5 the “IC50, DLL4-mediated reporter assay” value [3] was 18 nM, the IC50 [4] was 1.3 nM and the IC50 [5] was 1.3 nM.

B6: DLLBII95F02 (VHH)
VHH: EVQLVESGGGSVQAGGSLRLSCAASGRTFSSYAMGWFRQAPGKEREFVAAINWSGGYTYYADSVRGRFTISRDNAKNTVYLQMNSLKPEDTAVYYCAAPAPGSSGYEYDYWGQGTQVTVSS
B6 was tested, and the koff (recombinant human DLL4) was 0.00067 s⁻¹, the “% inh” value [6] was 71% and the “% inh” value [7] was 81%.

B7: DLLBII104C04 (VHH)
VHH: EVQLVESGGGLVQAGGSLRLSCAAAGSTFSSYVMGWYRQAPGKQRELVAHISTRGITYYADSVKGRFTISRDNAKNTMYLQMNSLKPEDTAVYYCNTRRNFLSNYWGQGTQVTVSS
For B7, the koff (recombinant human DLL4) was 0.001 s⁻¹, the “% inh” value [6] was 83% and the “% inh” value [7] was 87%.

B8: DLLBII58A11 (VHH)
VHH: EVQLVESGGGLVQAGGSLRLSCTTSERTVSRYSMGWFRQAPGKEREAVATISWSGDSTYYADSVKGRFTISRDNTKNTLYLQIDSLKPEDTAVYYCVAKPNLKYGSYWPPRGYDYWGQGTQVTVSS
For B8, the koff (recombinant human DLL4) was 0.0016 s⁻¹, the “% inh” value [6] was 73% and the “% inh” value [7] was 95%.

B9: DLLBII83G01 (VHH)
VHH: EVQLVESGGGLVQAGGSLRLSCAASGRTFSNYIMGWFRQAPGKEREFVAGISRYADYTGYADSVKGRFTISRDNVKNTVYLRMNSLKPDDTAVYYCAANEGYCSGYGCYEDSGQYDYWGQGTQVTVSS
B9 was tested, and the koff (recombinant human DLL4) was 0.00041 s⁻¹, the “% inh” value [6] was 93% and the “% inh” value [7] was 87%.
